Data on two substances can be found in PMC6891888.

Test [1] deals with BG505 NFL CC+ trimer (HIV-1 (strain BG505)). As to the kind of experiment: cryo-EM structure.
In test [2] the target is 16055 NFL TD 2CC+ trimer (HIV-1 (strain 16055)). As to the kind of experiment: cryo-EM structure.

Regarding “BG505 NFL CC+ trimer (domain or fragment)”, the stoichiometry N in test [1] amounted to 3.

As to “16055 NFL TD 2CC+ trimer (domain or fragment)”, the stoichiometry N in test [2] turned out to be 3.

For orientation: stoichiometry N means the number of molecules, sites or subunits per partner or assembly.
